# T1: recombinant human LAIR1 (leukocyte-associated immunoglobulin-like receptor 1) (human), Q6GTX8
# T1 chain: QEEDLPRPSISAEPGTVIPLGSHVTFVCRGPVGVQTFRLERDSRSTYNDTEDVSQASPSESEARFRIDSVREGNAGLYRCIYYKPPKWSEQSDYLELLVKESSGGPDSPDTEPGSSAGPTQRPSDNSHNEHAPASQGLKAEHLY
# Molecular target: T1, recombinant human LAIR1 …
binder,measurement,value
"polymerized type I collagen (protein, here or on the partner: covalent bond between the protein and the PVP moiety; γ-irradiated | covalent bond between the protein and the PVP moiety; γ-irradiated) chain 1: not shown chain 2: GPMGLMGPRGPPGAVGAPGPQGFQGPAGEPGEPGQTGPAGARGPPGPPGKAGEDGHPGKPGRPGERGVVGPQGARGFPGTPGLPGFKGIRGHNGLDGLKGQPGAPGVKGEPGAPGENGTPGQTGARGLPGERGRVGAPGPAGARGNDGSVGPVGPAGPIGSAGPPGFPGAPGPKGELGPVGNPGPAGPAGPRGEVGLPGVSGPVGPPGNPGANGLPGAKGAAGLPGVAGAPGLPGPRGIPGPAGAAGATGARGLVGEPGPAGSKGESGNKGEPGAAGPQGPPGPSGEEGKRGPNGEVGSAGPPGPPGLRGNPGSRGLPGADGRAGVMGPPGSRGPTGPAGVRGPNGDSGRPGEPGLMGPRGFPGSPGNVGPAGKEGPAGLPGIDGRPGPIGPAGARGEPGNIGFPGPKGPTGDPGKNGEKGHAGLAGARGAPGPDGNNGAQGPPGPQGVQGGKGEQGPAGPPGFQGLPGPAGTAGEVGKPGERGIPGEFGLPGPAGPRGERGPPGESGAAGPAGPIGSRGPSGPPGPDGNKGEPGVLGAPGTAGPSGPSGLPGERGAAGIPGGKGEKGETGLRGDVGSPGRDGARGAPGAVGAPGPAGANGDRGEAGPAGPAGPAGPRGSPGERGEVGPAGPNGFAGPAGAAGQPGAKGERGTKGPKGENGPVGPTGPVGAAGPAGPNGPPGPAGSRGDGGPPGATGFPGAAGRIGPPGPSGISGPPGPPGPAGKEGLRGPRGDQGPVGRTGETGASGPPGFAGEKGPSGEPGTAGPPGTPGPQGILGAPGFLGLPGSRGERGLPGVAGSVGEPGPLGIAGPPGARGPPGAVGNPGVNGAPGEAGRDGNPGSDGPPGRDGQAGHKGERGYPGNPGPAGAAGAPGPQGAVGPAGKHGNRGEPGPAGSVGPAGAVGPRGPSGPQGIRGEKGEPGDKGPRGLPGLKGHNGLQGLPGLAGHHGDQGAPGPVGPAGPRGPAGPSGPAGKDGRTGQPGAVGPAGIRGSQGSQGPAGPPGPPGPPGPPGPS","percentage of CD14+/CD16+/CD163+/IL-10-expressing cells (M2 phenotype) in M1 cultures without vs. with 10% PTIC, flow cytometry",19.8%
same,"percentage of CD16+/CD36+/CD86+/IL-1β-expressing cells (M1 phenotype) in M1 cultures without vs. with 10% PTIC, flow cytometry",1.5%

# Source: PMC11817110
